Source: US20210230266A1 (SINGAPORE HEALTH SERVICES PTE, published 2021)
Changes are numbered by the printed parent chain. One block for each binder: values may come before it.

What was measured:
[1] = target: T1, FLAG-tagged human IL-11 expressed at the surface of transiently transfected cells (human, UniProt P20809 22-199); experiment: flow cytometry, hybridoma supernatant on cells transfected with pB1-IL11-hum.FL; relative to the anti-FLAG positive control (100%)
T1 construct: also called IL-11 expressing HEK cells; target cells expressing human IL-11 at their surface; not shown: FLAG tag added to the N-terminus
T1 sequence: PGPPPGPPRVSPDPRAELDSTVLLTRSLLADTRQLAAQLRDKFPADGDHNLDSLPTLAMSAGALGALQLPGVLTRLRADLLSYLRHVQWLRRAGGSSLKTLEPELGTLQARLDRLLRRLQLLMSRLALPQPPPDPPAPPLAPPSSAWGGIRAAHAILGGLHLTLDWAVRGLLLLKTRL

[2] = target: T1, FLAG-tagged human IL-11 expressed at …; experiment: flow cytometry, hybridoma supernatant on cells transfected with pB1-IL11-hum.FL
[3] = target: T2, Mouse IL-11 (mouse, UniProt P47873 22-199, limits assumed); experiment: real-time binding kinetics; the text says SPR (BIAcore T200), the sheet's axis reads Binding [nm]
T2 construct: also called murine IL-11; recombinant murine IL-11
T2 sequence (looked up): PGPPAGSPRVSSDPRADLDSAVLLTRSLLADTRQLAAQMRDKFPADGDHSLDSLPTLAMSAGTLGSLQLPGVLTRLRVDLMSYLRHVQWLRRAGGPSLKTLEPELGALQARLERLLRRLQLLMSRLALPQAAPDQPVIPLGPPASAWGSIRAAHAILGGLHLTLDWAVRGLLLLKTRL
Experimental: (§1) Real-time binding kinetics of anti-IL-11 antibody BSN-3C6 to human and mouse IL-11 were measured by surface plasmon resonance (SPR) using a BIAcore T200 system (GE Healthcare, USA). The association and dissociation were measured for 250 s and 500 s respectively. The equilibrium binding constant KD was determined by the ratio of the binding rate constants kd/ka.

[4] = target: T2, Mouse IL-11; experiment: SPR, BIAcore T200; KD from kd/ka
Experimental: as §1

[5] = target: T3, Human IL-11 (human, UniProt P20809 22-199); experiment: SPR, BIAcore T200; KD from kd/ka
T3 construct: Recombinant human IL-11 (GenScript Cat. No. Z03108-1) or IL-11 secreted by human cells; the mature form is said to have 178 residues; also called recombinant human IL-11; endogenously produced IL-11
T3 sequence: T1 sequence
Experimental: as §1

[6] = target: T3, Human IL-11; experiment: SPR, BIAcore T200; sensorgrams with association to 250 s and dissociation to 750 s
Experimental: as §1

[7] = target: T3, Human IL-11; experiment: told from inhibition of MMP2 secretion by TGFB1-stimulated primary human atrial fibroblasts (FIG. 54A)
Experimental: Primary human atrial fibroblasts were incubated with TGFB1 (5 ng/ml) and varying concentrations of humanised 3C6 clones. MMP2 secretion into the supernatant by human atrial fibroblasts was assessed to estimate the % of inhibition.

binding relative to anti-FLAG positive control [1]: 188%
GMFI [2]: 236000
B1: BSN-5B8 (antibody, V domains shown)
VH: QVQLQQSGAELARPGTSVKLSCKASGYTFTSYGISWVKQRTGQGLEWIGEIYPRSSNTYYNEKFKGKATLTADKSSSTAYMELRSLTSEDSADYFCARANWVGYFDVWGTGTTVTVSS
VL: DIVMTQSHKFMSTSVGDRVTITCKASQDVGTAVAWYQQKPGQSPKLLIYWASTRLTGVPDRFTGSGSGTYFTLTINNVQSEDLADYFCQQYSSYRTFGGGTKLEIK

binding relative to anti-FLAG positive control [1]: 23%
GMFI [2]: 28600
B2: BSN-2G6 (antibody, V domains shown)
VH: QVQLQESGPELVKPGASVKIPCKASGYTFTDYNMDWVKQSHGKSLEWIGNINPDNGGTIYNQKFKGKATLTVDKSSSTAYMELRSLTSEDTAVYFCAREGPYGYTWFAYWGQGTLDTVSA
VL: DILLTQSPAILSVSPGERVSFSCRASQSIGTSIHWYQQRTNGSPRLLIKYASESISGIPSRFSGSGSGTDFTLSINSVESEDIADYYCQQSNSWPLTFGAGTKLELK

koff [3]: 0.000112 s⁻¹
kon [3]: 46900 M⁻¹ s⁻¹
Kd [4]: 2.38 nM
Kd [5]: 4.14 nM
koff [6]: 0.000635 s⁻¹
kon [6]: 153000 M⁻¹ s⁻¹
binding relative to anti-FLAG positive control [1]: 176%
GMFI [2]: 222000
B3: BSN-3C6 (antibody, V domains shown)
VH: EVQLQQSGPELVKPGASVKIPCKASGYTFTDYNMDWVKQSHGKSLEWIGDINPHNGGPIYNQKFTGKATLTVDKSSSTAYMELRSLTSEDTAVYYCARGELGHWYFDVWGTGTTVTVSS
VL: DIVLTQSPASLAVSLGQRATISCRASKSVSTSGYSYIHWYQQKPGQPPKLLIYLASNLDSGVPARFSGSGSGTDFTLNIHPVEEEDAATYYCQHSRDLPPTFGGGTKLEIK
notes: Mouse monoclonal antibody from a hybridoma; also called A6; anti-IL-11 antibody clone BSN-3C6

binding relative to anti-FLAG positive control [1]: 176%
GMFI [2]: 221000
B4: BSN-7D4 (antibody, V domains shown)
VH: B3 VH with P21S, H41Q, S44R, H54N, N55Y, P58T, T65K, A92T, A97T
VL: B3 VL with A9P, A12T, T31A, I37M, A55T, D59E, R96W
notes: Mouse monoclonal antibody from a hybridoma; also called A12

binding result [7]: binds
B5: Humanised 3C6 clone VH 2.2/VL 2.2 (antibody, V domains shown)
VH: EVQLVQSGAEVKKPGASVKISCKASGYTFTDYNMDWVKQAPGQRLEWIGDINPHNGGPIYNQKFTGRATLTVDKSASTAYMELSSLRSEDTAVYYCARGELGHWYFDVWGQGTTVTVSS
VL: DIVLTQSPASLALSPGERATLSCRASKSVSTSGYSYIHWYQQKPGQAPRLLIYLASNLDSGVPARFSGSGSGTDFTLTISSLEEEDFATYYCQHSRDLPPTFGQGTKLEIK
notes: also called 3C6 VH2.2/VL2.2

binding result [7]: binds
B6: Humanised 3C6 clone VH 2.2/VL 2.4 (antibody, V domains shown)
VH: B5 VH
VL: B5 VL with D1E, S10T, A12S, E84P

binding result [7]: binds
B7: Humanised 3C6 clone VH 2.2/VL 2.3 (antibody, V domains shown)
VH: B5 VH
VL: B5 VL with S10T, A12S, E84P

binding result [7]: binds
B8: Humanised 3C6 clone VH 2.3/VL 2.3 (antibody, V domains shown)
VH: B5 VH with K38R, A68V
VL: B5 VL with S10T, A12S, E84P

binding result [7]: binds
B9: Humanised 3C6 clone VH 2.2/VL 2.1 (antibody, V domains shown)
VH: B5 VH
VL: B5 VL with A47P, T78N, S80H, S81P
notes: T0003 heads the columns Heavy chain and Light chain, but the entries are variable domains; also called 3C6 VH2.2/VL2.1

binding result [7]: binds
B10: Humanised 3C6 clone VH 2.3/VL 2.2 (antibody, V domains shown)
VH: B5 VH with K38R, A68V
VL: B5 VL
